The values below come from patent US20260022175A1 (Chugai, published 2026).

One may read the Kd as a measure of binding affinity in units of concentration. Low readings indicate tighter binding, high ones weaker binding.

Assay [1] deals with T1, hFcγRIIaH on hFcγRIIaH-expressing Jurkat cells (human, UniProt P12318 34-317).
T1 sequence (looked up): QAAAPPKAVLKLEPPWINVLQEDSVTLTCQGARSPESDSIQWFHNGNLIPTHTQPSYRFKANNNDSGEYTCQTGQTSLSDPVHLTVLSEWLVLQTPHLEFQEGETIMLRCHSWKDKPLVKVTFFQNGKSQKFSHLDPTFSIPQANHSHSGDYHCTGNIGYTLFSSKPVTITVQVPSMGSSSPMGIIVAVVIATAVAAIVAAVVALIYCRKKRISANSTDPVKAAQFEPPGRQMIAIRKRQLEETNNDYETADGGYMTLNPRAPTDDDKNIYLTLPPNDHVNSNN
The assay is described as follows: cell-based or functional assay.

The target in assay [2] is T2, human FcγRIIb extracellular domain (human, UniProt P31994 43-217).
T2 construct: extracellular domain; also called hFcγR IIb
T2 sequence (looked up): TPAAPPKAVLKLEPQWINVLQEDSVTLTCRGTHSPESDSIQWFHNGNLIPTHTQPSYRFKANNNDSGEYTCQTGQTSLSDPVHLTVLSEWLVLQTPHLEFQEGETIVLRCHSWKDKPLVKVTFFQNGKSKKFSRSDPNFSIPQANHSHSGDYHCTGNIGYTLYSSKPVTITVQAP
The assay can be described thus: SPR Biacore 8K+, antibody captured, FcγR as analyte, steady state affinity model. A general note: SPR reads the build-up and loss of mass on a sensor chip optically.

The target of assay [3] is T3, human FcγRIIIa V extracellular domain (human, UniProt P08637 17-208).
T3 construct: extracellular domain; also called hFcγR IIIa V
The assay can be described thus: SPR Biacore 8K+, antibody captured, FcγR as analyte, 1:1 Langmuir model.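 Note: antibodies captured on a streptavidin chip through a biotinylated anti-human Fab kappa reagent, with FcγR extracellular domains injected in pH 7.4 phosphate buffer at 25 °C.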
Experimental: (§1) The interaction between the produced antibodies and human FcγRs was analyzed using Biacore 8K+ by the method below. For the running buffer, 50 mM Na-Phosphate, 150 mM NaCl, and 0.05% Tween20 (pH 7.4) was used, and measurement was performed at 25° C. The sensor chip used was a Series S SA chip (GE Healthcare) onto which CaptureSelect Human Fab-kappa Kinetics Biotin Conjugate (Thermo Fisher Scientific) was immobilized. An antibody of interest was captured onto this chip, and each FcγR diluted with the running buffer was allowed to interact with it. The chip was regenerated using 10 mM Glycine-HCl (pH 1.5), and repeatedly used to capture antibodies and perform measurement. The dissociation constants KD (mol/L) of each antibody for FcγRs were calculated using Biacore Insight Evaluation Software, with a steady state affinity model for the dissociation constant for FcγRIIb and a 1:1 Langmuir binding model for the dissociation constants for the other FcγRs (Table 48).

For assay [4], the target named is T4, human FcγRIa extracellular domain (human, UniProt P12314 16-292).
T4 construct: extracellular domain; also called hFcγR Ia; hFcγRIa
The assay is described as above.
Experimental: as §1

Assay [5] addresses T5, human FcγRIIa H extracellular domain (human, UniProt P12318 34-217).
T5 construct: extracellular domain; also called hFcγR IIa H
T5 sequence (looked up): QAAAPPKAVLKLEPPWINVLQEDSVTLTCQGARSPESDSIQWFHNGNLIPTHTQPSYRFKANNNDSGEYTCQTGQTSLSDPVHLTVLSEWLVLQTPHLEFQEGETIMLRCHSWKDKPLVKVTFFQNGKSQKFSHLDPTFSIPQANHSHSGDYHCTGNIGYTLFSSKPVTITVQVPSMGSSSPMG
The assay is described as above.
Experimental: as §1

Assay [6] has as its target T6, human FcγRIIIa F extracellular domain (human, UniProt P08637 17-208).
T6 construct: extracellular domain; also called hFcγR IIIa F
The description is as above.
Experimental: as §1

Assay [7] concerns the target T7, human FcγRIIa R extracellular domain (human, UniProt P12318 34-217).
T7 construct: extracellular domain; also called hFcγR IIa R
T7 sequence (looked up): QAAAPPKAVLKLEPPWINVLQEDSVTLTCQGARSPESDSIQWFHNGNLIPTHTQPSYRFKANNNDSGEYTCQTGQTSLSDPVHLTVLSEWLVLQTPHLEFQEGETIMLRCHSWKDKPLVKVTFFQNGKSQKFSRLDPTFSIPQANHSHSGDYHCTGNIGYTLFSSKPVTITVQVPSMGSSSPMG
The description is as above.
Experimental: as §1

Assay [8] addresses T3, human FcγRIIIa V extracellular domain. The assay is described as follows: SPR Biacore 8K+; KD for FcγRIIb divided by KD for this FcγR.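 Note: antibodies captured on an anti-human Fab kappa SA chip with soluble human FcγR ectodomains flowed over, FcγRIIb KD from steady-state fit, other FcγR KD from Langmuir model.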
The target in assay [9] is T5, human FcγRIIa H extracellular domain. The description is as above.
Assay [10] has as its target T6, human FcγRIIIa F extracellular domain. The assay is described as above.
Assay [11] concerns the target T7, human FcγRIIa R extracellular domain. The assay is described as above.
The target in assay [12] is hFcγRIIIaV on hFcγRIIIaV-expressing Jurkat cells (human, UniProt P08637 17-254). The assay can be described thus: cell-based or functional assay.
The target in assay [13] is T3, human FcγRIIIa V extracellular domain. The assay can be described thus: SPR Biacore 8K+; KD of G1d divided by KD of this antibody.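 Note: antibodies captured on an anti-Fab-kappa streptavidin chip, soluble FcγR ectodomains flowed over, KD by steady-state fit for FcγRIIb and Langmuir kinetic model for the other receptors.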
In assay [14] the target is T4, human FcγRIa extracellular domain. The assay is described as above.
For assay [15], the target named is T5, human FcγRIIa H extracellular domain. The description is as above.
In assay [16] the target is T6, human FcγRIIIa F extracellular domain. The description is as above.
Assay [17] deals with T7, human FcγRIIa R extracellular domain. The assay is described as above.
Assay [18] concerns the target T2, human FcγRIIb extracellular domain. The description is as above.

T4 sequence (P12314 16-292): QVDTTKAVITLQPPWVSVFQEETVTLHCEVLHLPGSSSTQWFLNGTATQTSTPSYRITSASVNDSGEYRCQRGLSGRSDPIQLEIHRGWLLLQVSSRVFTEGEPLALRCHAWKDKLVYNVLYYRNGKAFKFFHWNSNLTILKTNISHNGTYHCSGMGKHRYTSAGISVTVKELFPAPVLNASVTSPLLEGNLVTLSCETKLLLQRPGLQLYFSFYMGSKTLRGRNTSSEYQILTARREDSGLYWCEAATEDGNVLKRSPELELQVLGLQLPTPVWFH
T6 sequence (P08637 17-208): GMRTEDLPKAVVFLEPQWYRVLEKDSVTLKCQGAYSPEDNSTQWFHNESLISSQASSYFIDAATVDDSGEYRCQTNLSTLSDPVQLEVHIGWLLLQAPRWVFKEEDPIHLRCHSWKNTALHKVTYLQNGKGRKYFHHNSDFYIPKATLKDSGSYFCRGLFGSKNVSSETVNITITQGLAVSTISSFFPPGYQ
T3 sequence (P08637 17-208 F176V limits assumed): as the sequence (P08637 17-208) above, with F160V counted along it
Chain of hFcγRIIIaV on hFcγRIIIaV-expressing Jurkat cells (P08637 17-254, form in doubt): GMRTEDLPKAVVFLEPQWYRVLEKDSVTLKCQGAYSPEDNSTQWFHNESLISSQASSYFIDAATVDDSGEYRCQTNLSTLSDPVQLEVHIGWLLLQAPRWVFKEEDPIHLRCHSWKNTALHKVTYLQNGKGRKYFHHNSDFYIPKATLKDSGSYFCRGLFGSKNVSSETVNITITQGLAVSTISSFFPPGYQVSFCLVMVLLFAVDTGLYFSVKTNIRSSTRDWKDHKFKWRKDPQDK

B1: H240-Kn120/L73-k0//H240-Hl068/L73-k0 (antibody, human IgG1, kappa)
heavy 1: QDQLVQSGAEVKKPGASVKVSCKASGFNIKDTYIQWVRQAPGQGLEWMGRIDPLRKQTKYREKFEGRVTITADTSTNTAYMELSSLRSEDTAVYYCVRSGREFDYWGQGTLVTVSSASTKGPSVFPLAPSSKSTSGGTAALGCLVKDYFPEPVTVSWNSGALTSGVHTFPAVLQSSGLYSLSSVVTVPSSSLGTQTYICNVNHKPSNTKVDKKVEPKSCDKTHTCPPCPAPEYYWGPMVFLFPPKPKDTLMISRTPEVTCVVVDVSDEDPEVKFNWYVDGVEVHNAKTKPREEQYNATYRVVSVLTVLHQDWLNGKEYKCKVSNKDLPAPIEKTISKAKGQPREPQVCTLPPSRDELTKNQVSLWCLVKGFYPSDIAVEWESNGQPENNYKTTPPVLDSDGSFFLYSKLTVDKSRWQQGNVFSCSVMHEALHNHYTQKSLSLSP
heavy 2: QDQLVQSGAEVKKPGASVKVSCKASGFNIKDTYIQWVRQAPGQGLEWMGRIDPLRKQTKYREKFEGRVTITADTSTNTAYMELSSLRSEDTAVYYCVRSGREFDYWGQGTLVTVSSASTKGPSVFPLAPSSKSTSGGTAALGCLVKDYFPEPVTVSWNSGALTSGVHTFPAVLQSSGLYSLSSVVTVPSSSLGTQTYICNVNHKPSNTKVDKKVEPKSCDKTHTCPPCPAPELLGGPSVFLFPPKPKDTLMISRTPEVTCVVVDVSHEEPEVKFNWYVDGVEVHNAKTKPREEQYNSTYRVVSVLTVLHQDWLNGKEYKCKVSNDALPKPIEETISKAKGQPREPQVYTLPPSRCELTKNQVSLSCAVKGFYPSDIAVEWESNGQPENNYKTTPPVLDSDGSFFLVSKLTVDKSRWQQGNVFSCSVMHEALHNHYTQKSLSLSP
light: DIQMTQSPSSLSASVGDRVTITCRASQDIHKYIAWYQQKPGQAPRLLIQYTSTLQPGVPSRFSGSGSGTDYTFTISSLQPEDIATYYCLQYEQLRTFGGGTKVEIKRTVAAPSVFIFPPSDEQLKSGTASVVCLLNNFYPREAKVQWKVDNALQSGNSQESVTEQDSKDSTYSLSSTLTLSKADYEKHKVYACEVTHQGLSSPVTKSFNRGEC
notes: also called EGL-ART2; ART2
On to B1, for which the “EC50 value (hFcγRIIaH ADCP Reporter Bioassay, Hepa1-6/hEREG target cells)” value in assay [1] is 0.0218 µg/mL. Moreover, the dissociation constant Kd in [2] was found to be 440 nM; in assay [3], 1.67 nM; in [4], 0.0264 nM; in [5], 76.4 nM; in assay [6], 6.43 nM; in assay [7], 33.8 nM. Also, the “A/I ratio (KD for FcγRIIb divided by KD for each FcγR)” value stood at 264 in assay [8], 5.8 in assay [9], 68.4 in assay [10] and 13 in assay [11]. Further, the “EC50 value (hFcγRIIIaV ADCC Reporter Bioassay, Hepa1-6/hEREG target cells)” value in assay [12] came to 0.00135 µg/mL. Besides, the “Relative value to KD between G1d and hFcgRs” value in [13] worked out at 215; in assay [14] it was 3.4; in [15] it was 14.7; in [16] it was 460; in [17], 49; in [18], 22.8.

B2: H240-Kn125/L73-k0//H240-Hl076/L73-k0 (antibody, human IgG1, kappa)
heavy 1: QDQLVQSGAEVKKPGASVKVSCKASGFNIKDTYIQWVRQAPGQGLEWMGRIDPLRKQTKYREKFEGRVTITADTSTNTAYMELSSLRSEDTAVYYCVRSGREFDYWGQGTLVTVSSASTKGPSVFPLAPSSKSTSGGTAALGCLVKDYFPEPVTVSWNSGALTSGVHTFPAVLQSSGLYSLSSVVTVPSSSLGTQTYICNVNHKPSNTKVDKKVEPKSCDKTHTCPPCPAPEYQWGPMVFLFPPKPKDTLMISRTPEVTCVVVDVSDEEPEVKFNWYVDGVEVHNAKTKPREEQYNATYRVVSVLTVLHQDWLNGKEYKCKVSNKALPAPIEKTISKAKGQPREPQVCTLPPSRDELTKNQVSLWCLVKGFYPSDIAVEWESNGQPENNYKTTPPVLDSDGSFFLYSKLTVDKSRWQQGNVFSCSVMHEALHNHYTQKSLSLSP
heavy 2: QDQLVQSGAEVKKPGASVKVSCKASGFNIKDTYIQWVRQAPGQGLEWMGRIDPLRKQTKYREKFEGRVTITADTSTNTAYMELSSLRSEDTAVYYCVRSGREFDYWGQGTLVTVSSASTKGPSVFPLAPSSKSTSGGTAALGCLVKDYFPEPVTVSWNSGALTSGVHTFPAVLQSSGLYSLSSVVTVPSSSLGTQTYICNVNHKPSNTKVDKKVEPKSCDKTHTCPPCPAPELLGGPSVFLFPPKPKDTLMISRTPEVTCVVVDVSHEEPEVKFNWYVDGVEVHNAKTKPREEQYNSTYRVVSVLTVLHQDWLNGKEYKCKVSNDALPMPIEETISKAKGQPREPQVYTLPPSRCELTKNQVSLSCAVKGFYPSDIAVEWESNGQPENNYKTTPPVLDSDGSFFLVSKLTVDKSRWQQGNVFSCSVMHEALHNHYTQKSLSLSP
light: DIQMTQSPSSLSASVGDRVTITCRASQDIHKYIAWYQQKPGQAPRLLIQYTSTLQPGVPSRFSGSGSGTDYTFTISSLQPEDIATYYCLQYEQLRTFGGGTKVEIKRTVAAPSVFIFPPSDEQLKSGTASVVCLLNNFYPREAKVQWKVDNALQSGNSQESVTEQDSKDSTYSLSSTLTLSKADYEKHKVYACEVTHQGLSSPVTKSFNRGEC
notes: Anti-human Epiregulin heterodimerized IgG1 Fc variant; also called EGL-ART1; ART1
As for B2, in [1], the “EC50 value (hFcγRIIaH ADCP Reporter Bioassay, Hepa1-6/hEREG target cells)” value is 0.0353 µg/mL. The Kd in assay [2] came to 12500 nM; in assay [3] it was 1.11 nM; in assay [4] it was 0.0302 nM; in assay [5], 264 nM; in [6] it was 2.53 nM; in assay [7], 1010 nM. For the same molecule, the “A/I ratio (KD for FcγRIIb divided by KD for each FcγR)” value in [8] came out at 11300; in assay [9], 47.4; in [10] it was 4950; in [11], 12.4. In assay [12], the “EC50 value (hFcγRIIIaV ADCC Reporter Bioassay, Hepa1-6/hEREG target cells)” value came out at 0.000716 µg/mL. Besides, the “Relative value to KD between G1d and hFcgRs” value in assay [13] was 323; in assay [14], 3; in assay [15], 4.3; in assay [16], 1170; in assay [17], 1.6; in assay [18] it was 0.8.
